Data: patent publication US20130251712A1 (NATIONAL RESEARCH COUNCIL OF CANADA, published 2013)

T1: TβR2cK (R2cK), receptor-coil fusion with thrombin cleavage site, expressed alone (human)
T1 construct: Conditioned medium of 293 cells; also called TβR2cKcoil
T1 chain: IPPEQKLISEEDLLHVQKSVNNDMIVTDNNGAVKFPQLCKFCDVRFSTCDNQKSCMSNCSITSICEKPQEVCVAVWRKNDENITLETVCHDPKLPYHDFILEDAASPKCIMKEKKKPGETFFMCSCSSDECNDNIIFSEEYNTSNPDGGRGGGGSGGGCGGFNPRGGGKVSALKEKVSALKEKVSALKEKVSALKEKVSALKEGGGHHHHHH

T2: TβR2ECD-cK5 (TβR2ECD with linker cassette fused to the cK5 C-terminal construct) (human)
T2 construct: Conditioned medium of 293 cells, expressed alone; also called TβR2-K5coil with internal cys/TEV
T2 chain: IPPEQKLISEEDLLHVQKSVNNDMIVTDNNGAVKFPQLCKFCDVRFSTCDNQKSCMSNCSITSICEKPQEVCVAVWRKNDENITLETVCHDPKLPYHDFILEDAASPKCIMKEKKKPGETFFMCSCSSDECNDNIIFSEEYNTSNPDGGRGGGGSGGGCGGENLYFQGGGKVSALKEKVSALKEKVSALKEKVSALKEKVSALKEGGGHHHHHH


Key:
[1] = molecular target: T1, TβR2cK (R2cK), receptor-coil fusion …; assay: non-reducing SDS gel and western blot with anti-TβRII antibody; E/K coil dimer fixed by an interchain disulfide
Experimental: Plasmids encoding the R2cK and R2cE constructs were transfected separately or co-transfected into 293 cells. Conditioned media from these cells were then analyzed by western blot to detect R2cK and R2cE expression and tested for TGF-β3 neutralization (FIG. 6A-C). By themselves R2cE or R2cK were unable to neutralize TGF-β3. […] Based on their activities in FIG. 6A, these forms are non-productive, i.e. cannot neutralize TGF-β. Expressed together, R2cE+R2cK predominantly form dimers of about 80 Kd and only minimal amounts of the monomers are seen in the non-reducing gel (FIG. 6B, lane 3), indicating a covalent, inter-chain disulfide bridge has been established (Click, FIG. 6B). Subsequent cleavage of R2cE+R2cK with a sufficient amount of thrombin (++) generates an R2c+R2c dimer (about 60 Kd) that is held together by an inter-chain disulfide (in the non-reducing SDS gel) and that no longer contains the coils (Cleave, FIG. 6C). The resultant TGF-/3 trap generated by the clamp/click/cleave (CCC) process described above is depicted as a molecular model in FIG. 7.

[2] = molecular target: T2, TβR2ECD-cK5 (TβR2ECD with linker …); assay: non-reducing SDS gel and western blot with anti-TβR2 antibody; E/K coil dimer fixed by an interchain disulfide

Binder	binding result [1]	binding result [2]
TβR2cE (R2cE), receptor-coil fusion with thrombin cleavage site, expressed alone (receptor, Conditioned medium of 293 cells; also called TβR2cEcoil) IPPEQKLISEEDLLHVQKSVNNDMIVTDNNGAVKFPQLCKFCDVRFSTCDNQKSCMSNCSITSICEKPQEVCVAVWRKNDENITLETVCHDPKLPYHDFILEDAASPKCIMKEKKKPGETFFMCSCSSDECNDNIIFSEEYNTSNPDGGRGGGGSGGGCGGFNPRGGGEVSALEKEVSALEKEVSALEKEVSALEKEVSALEKGGGHHHHHH	binds	–
TβR2ECD-cE5 (TβR2ECD with linker cassette fused to the cE5 C-terminal construct) (receptor, Secreted into conditioned medium of transfected 293 cells; tested unpurified, expressed alone; also called TβR2-E5coil with internal cys/TEV) IPPEQKLISEEDLLHVQKSVNNDMIVTDNNGAVKFPQLCKFCDVRFSTCDNQKSCMSNCSITSICEKPQEVCVAVWRKNDENITLETVCHDPKLPYHDFILEDAASPKCIMKEKKKPGETFFMCSCSSDECNDNIIFSEEYNTSNPDGGRGGGGSGGGCGGENLYFQGGGEVSALEKEVSALEKEVSALEKEVSALEKEVSALEKGGGHHHHHH	–	binds
